From patent US6639060

Target: human erbB-3 protein, gp180^erbB-3 (human) (UniProt P21860)
Assay: cell-based or functional assay

Chain of UniProt P21860 (P21860 20-1342): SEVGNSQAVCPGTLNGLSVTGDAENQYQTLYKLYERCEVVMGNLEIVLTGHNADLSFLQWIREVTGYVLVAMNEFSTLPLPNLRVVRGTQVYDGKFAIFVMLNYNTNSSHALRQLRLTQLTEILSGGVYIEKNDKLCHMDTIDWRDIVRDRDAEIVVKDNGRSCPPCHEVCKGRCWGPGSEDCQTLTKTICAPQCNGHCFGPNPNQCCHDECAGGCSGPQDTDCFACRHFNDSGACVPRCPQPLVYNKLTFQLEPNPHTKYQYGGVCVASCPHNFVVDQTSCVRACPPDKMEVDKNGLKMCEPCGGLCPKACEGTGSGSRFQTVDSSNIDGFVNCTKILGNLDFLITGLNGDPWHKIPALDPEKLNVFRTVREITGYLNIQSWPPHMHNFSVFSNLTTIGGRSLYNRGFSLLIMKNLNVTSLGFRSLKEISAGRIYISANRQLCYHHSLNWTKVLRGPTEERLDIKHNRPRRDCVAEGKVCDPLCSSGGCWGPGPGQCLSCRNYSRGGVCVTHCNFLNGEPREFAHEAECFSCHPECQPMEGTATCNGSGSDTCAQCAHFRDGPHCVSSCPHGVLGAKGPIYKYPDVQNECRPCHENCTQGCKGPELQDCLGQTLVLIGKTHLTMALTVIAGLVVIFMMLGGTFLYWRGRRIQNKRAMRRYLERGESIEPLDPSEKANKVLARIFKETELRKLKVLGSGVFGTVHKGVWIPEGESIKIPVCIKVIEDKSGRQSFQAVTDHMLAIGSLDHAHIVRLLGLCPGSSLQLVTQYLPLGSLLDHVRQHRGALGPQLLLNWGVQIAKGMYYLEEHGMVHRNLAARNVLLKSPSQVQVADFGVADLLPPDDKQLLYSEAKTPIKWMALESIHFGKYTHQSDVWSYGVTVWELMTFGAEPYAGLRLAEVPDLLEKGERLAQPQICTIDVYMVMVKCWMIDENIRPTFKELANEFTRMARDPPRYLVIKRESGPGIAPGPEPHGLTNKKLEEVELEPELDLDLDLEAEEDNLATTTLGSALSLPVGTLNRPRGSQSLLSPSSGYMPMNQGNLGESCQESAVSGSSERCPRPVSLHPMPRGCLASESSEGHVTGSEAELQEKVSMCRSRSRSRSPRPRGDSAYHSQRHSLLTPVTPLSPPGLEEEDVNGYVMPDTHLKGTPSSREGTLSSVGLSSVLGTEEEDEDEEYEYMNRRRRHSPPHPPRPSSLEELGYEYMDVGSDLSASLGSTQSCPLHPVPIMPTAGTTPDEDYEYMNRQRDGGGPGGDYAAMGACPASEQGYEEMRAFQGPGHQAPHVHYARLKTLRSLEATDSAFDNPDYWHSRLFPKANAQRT

soft agar colonies/10^4 cells, + EGF 20 ng/ml (- EGF: 97) (colonies/10^4 cells): 94
Substance: EGF (epidermal growth factor) (ligand)
